The source of these data is paper PMC6921966 (Frontiers in Immunology, 2019).

Where a chain is given by its changes, count along the chain named.

In assay [1] the target is T1, mouse FcγRIV on transfected HEK293T cells (Mus musculus, UniProt A0A0B4J1G0).
T1 construct: also called FcγRIV transfected cells
The assay can be described thus: flow cytometry on cells. Particulars: one partner purified.

In assay [2] the target is M2 of A/Puerto Rico/8/1934 (H1N1) on infected cells (Influenza A virus A/Puerto Rico/8/1934 …, UniProt P06821). As to the kind of experiment: flow cytometry on cells. Particulars: one partner purified. (In general: A flow cytometer gives signals particle by particle.)
The target in assay [3] is M2 of A/Udorn/307/1972 (H3N2) on infected cells (influenza A virus A/Udorn/307/1972 …, UniProt P0DOF5). The assay can be described thus: flow cytometry on cells. Conditions: one partner purified.
For assay [4], the target named is M2 of A/Swine/Ontario/42729A/2001 (H3N3) on infected cells (Influenza A virus …, UniProt Q64HP7, strain). The assay can be described thus: flow cytometry on cells. Particulars: one partner purified.
The target of assay [5] is T2, human H3N2 M2e peptide (Influenza A virus, human H3N2 consensus).
T2 chain: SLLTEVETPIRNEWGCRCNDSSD
As to the kind of experiment: ITC; […] (300 μM) […] (30 μM) in PBS; […]. Particulars: both partners purified.

The target in assay [6] is T2, human H3N2 M2e peptide. As to the kind of experiment: ELISA. Conditions: both partners purified.

M2 of A/Puerto Rico/8/1934 (H1N1) on infected cells, sequence (P06821 whole entry): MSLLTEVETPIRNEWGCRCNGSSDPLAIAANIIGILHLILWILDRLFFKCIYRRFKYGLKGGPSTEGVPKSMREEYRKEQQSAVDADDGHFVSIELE
M2 of A/Udorn/307/1972 (H3N2) on infected cells, sequence (P0DOF5 whole entry): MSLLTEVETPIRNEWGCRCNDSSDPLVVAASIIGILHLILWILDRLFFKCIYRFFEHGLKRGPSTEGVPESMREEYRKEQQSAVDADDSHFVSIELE
T1 sequence (A0A0B4J1G0 21-249): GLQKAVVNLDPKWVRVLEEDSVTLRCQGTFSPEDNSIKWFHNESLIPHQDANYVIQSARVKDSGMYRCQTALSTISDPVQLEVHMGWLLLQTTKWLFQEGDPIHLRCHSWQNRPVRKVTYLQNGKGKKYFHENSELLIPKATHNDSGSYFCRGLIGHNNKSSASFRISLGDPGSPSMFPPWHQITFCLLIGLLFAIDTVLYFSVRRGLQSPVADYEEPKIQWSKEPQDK

B1: FcγRIV-VHH-7m (VHH)
VHH: QVQLQESGGGLVQAGGSLRLSCAASGFTVDDYSIGWFRQAPGKEREGVSCISIRDGSTGYTDPVKGRFTISSDNAKNMVYLQMNMLKPEDTAVYYCAGDIYCSNDDVGVGPYDYWGQGTQVTVSS
notes: also called FcgRIV-VHH-7m; FcγRIV-specific VHH
Take B1: the binding result in assay [1] is “binds”.

B2: M2e-VHH-23m (VHH)
VHH: QVQLQESGGGLVQTGGSLRLSCAFSGFTSDDYVIGWFRQAPGKGRQGVSCIRLSGGGTIYADSAKGRFTVSADNAKKTVYLQMTRLKPEDTAVYYCGAERYNVEGCGYDVAYWGKGTQVTVSS
notes: also called M2e-VHH-m23; M1e- VHH-23m; not shown: His6, C-terminal, kept
As usually defined, the Kd is the concentration at which binding is half-saturated. Read a high Kd as lower affinity. Broadly, the stoichiometry N is the number of molecules, sites or subunits per partner or assembly. For the molecule B2, the Kd in assay [2] came out at 13.6 nM; in the assay with human H3N2 M2e peptide [5], 730 nM. The binding result is reported as “binds” in assay [3] and “no binding (tested: 20 μg/ml)” in assay [4]. The “stoichiometry N” value with human H3N2 M2e peptide [5] is 1.

B3: M2e-VHH-66m (VHH)
VHH: B2 VHH with T28I, V70I, R85S, Y101H
notes: not shown: His6, C-terminal, kept
In the case of B3, in the assay with human H3N2 M2e peptide [6], the binding result is reported as “binds”.

B4: M2e-VHH-10m (VHH)
VHH: QVQLQESGGGLVQAGESLSLSCAASGLAFDDYVIGWYRQAPGKGREGLSCMRLSNGAIMYGPSVKGRFTMSSDNAKSTFFLQMTRLIPEDTAVYYCGAEKHDVNGCGFDVAYWGQGTQVTVSS
notes: as for B3
On to B4, for which the binding result in the assay with human H3N2 M2e peptide [6] is “binds”.
